What was measured:
[1] = system: immunoglobulin G (IgG), pooled; assay: SPR; conditions: 5' thiol (immobilized on gold); SPR imaging, aptamer immobilized on gold chip; IgG 250 nM; ka 3.69E5, kd 7.56E-3
[2] = biological target: human serum albumin (HSA) (Homo sapiens, UniProt P02768 P02768:25-609); assay: SPR; counter-target; 250 nM HSA; aptamer described as selected to bind IgG and not HSA; curve only in figure
Experimental: These sequences were synthesized with a 5′ thiol and immobilized onto a gold surface in triplicate spots at a concentration of 5 uM in a volume of 10 nL. A negative aptamer of the same length not selected for binding to serum albumin was also spotted on the gold chips in the same manner. These were allowed to dry, and the remainder of the surface was blocked with thiolylated polyethylene glycol with an average molecular weight of 5 kda. The gold chips were then inserted on top of a glass prism in a Horiba Openplex Surface Plasmon Resonance imaging instrument (SPRi). Human serum albumin at two concentrations (100 nM and 250 nM) was injected over the chip at a volume of 200 uL and a flow rate of 50 uL/min. We also injected a pool of immunoglobulin (IgG) at a concentration of 250 nM at the same volume and flow rates.
Binding analysis for the selected IgG sequences was performed in a manner identical to that described for the HSA sequences.

Chain of human serum albumin (HSA) (P02768 25-609, one chain of several): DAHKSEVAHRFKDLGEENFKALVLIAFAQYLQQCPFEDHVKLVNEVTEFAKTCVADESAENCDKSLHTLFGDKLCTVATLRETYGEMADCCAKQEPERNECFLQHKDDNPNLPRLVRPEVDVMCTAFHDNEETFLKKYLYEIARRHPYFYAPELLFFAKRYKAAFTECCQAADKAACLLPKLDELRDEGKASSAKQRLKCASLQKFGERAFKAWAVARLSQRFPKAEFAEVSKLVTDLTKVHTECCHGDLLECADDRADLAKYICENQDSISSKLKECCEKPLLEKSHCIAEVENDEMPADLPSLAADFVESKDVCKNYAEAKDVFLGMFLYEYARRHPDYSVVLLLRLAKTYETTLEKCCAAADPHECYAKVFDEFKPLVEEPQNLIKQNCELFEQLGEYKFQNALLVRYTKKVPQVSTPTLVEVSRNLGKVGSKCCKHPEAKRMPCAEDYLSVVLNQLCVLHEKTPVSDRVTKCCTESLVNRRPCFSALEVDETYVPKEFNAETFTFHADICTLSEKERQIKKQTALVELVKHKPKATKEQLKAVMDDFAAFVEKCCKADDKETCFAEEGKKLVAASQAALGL

CCAGATACAGACCCGAGGTGAGAATTTCAACCATCGGCGCCAACAAAACATTCTCTCAGATACAGTAGACAGC [fBIgG-2]
Kd [1]: 20.5 nM

B1: fBIgG-2 (ssDNA)
DNA: CCAGATACAGACCCGAGGTGAGAATTTCAACCATCGGCGCCAACAAAACATTCTCTCAGATACAGTAGACAGC
modifications: 5' thiol (immobilized on gold)
binding result [2]: no binding

Reference: patent US20250116035, “A METHOD FOR REPRODUCIBLE APTAMER SELECTION USING CLOSED SEQUENCE SOLUTION SPACES” (NEOVENTURES BIOTECHNOLOGY INC., published 2025)
